Laboratory results from PMC8637272.

Tested on: enolase (ENO) (Mycoplasma gallisepticum S6)
Assay: EMSA
Details: EMSA: 20 mM carbonate buffer pH 9.8, 6% glycerol, 2.5 pmol FAM-DNA, 10 min 37 C, 6% acrylamide gel at 10 C. AFM: 20 mM Tris-HCl pH 7.5 (Methods; Fig 6 legend …)

Row | Substance | Kd (Hill n 3.1 +/- 0.6) [µM] | Kd (Hill n 2.7 +/- 0.8) [µM]
1 | Peno | 1 | 
2 | Pgapd |  | 1.1
